Measurements as given in PMC10786891, “Massively parallel profiling of RNA-targeting CRISPR-Cas13d”.

T1: EsCas13d, nuclease-dead (Eubacterium siraeum, UniProt B0MS50, R295A;H300A;R849A;H854A)
T1 sequence: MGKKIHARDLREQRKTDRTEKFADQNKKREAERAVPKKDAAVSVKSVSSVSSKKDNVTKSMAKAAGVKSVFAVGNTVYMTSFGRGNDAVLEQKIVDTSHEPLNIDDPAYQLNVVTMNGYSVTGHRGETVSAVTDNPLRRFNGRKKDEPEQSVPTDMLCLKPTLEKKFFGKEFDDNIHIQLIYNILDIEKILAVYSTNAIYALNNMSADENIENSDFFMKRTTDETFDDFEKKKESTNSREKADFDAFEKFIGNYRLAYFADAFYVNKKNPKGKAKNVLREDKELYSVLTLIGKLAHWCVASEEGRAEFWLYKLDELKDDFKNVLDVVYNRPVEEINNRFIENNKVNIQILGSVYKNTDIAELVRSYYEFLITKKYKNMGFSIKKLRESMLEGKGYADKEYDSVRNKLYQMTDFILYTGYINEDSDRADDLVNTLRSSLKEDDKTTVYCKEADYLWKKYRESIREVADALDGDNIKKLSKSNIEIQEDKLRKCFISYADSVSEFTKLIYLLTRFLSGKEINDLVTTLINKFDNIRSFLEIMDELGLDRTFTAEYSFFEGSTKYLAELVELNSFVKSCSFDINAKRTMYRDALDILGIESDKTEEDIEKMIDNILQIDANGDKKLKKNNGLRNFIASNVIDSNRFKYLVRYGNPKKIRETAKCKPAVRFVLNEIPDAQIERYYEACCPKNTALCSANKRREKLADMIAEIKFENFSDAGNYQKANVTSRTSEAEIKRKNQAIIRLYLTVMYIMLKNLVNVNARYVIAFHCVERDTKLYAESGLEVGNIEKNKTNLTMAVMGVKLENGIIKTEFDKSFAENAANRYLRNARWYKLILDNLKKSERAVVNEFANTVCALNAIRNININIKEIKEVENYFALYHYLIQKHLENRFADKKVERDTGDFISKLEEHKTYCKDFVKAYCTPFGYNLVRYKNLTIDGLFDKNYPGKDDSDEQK

B1: target 1 MT 5'PFS GUG 3'PFS CCA (mixed)
RNA 1: CACCCGUGCAAAAAUGCAGGGGUCUAAAACUGAGCGGAUAACCUCUCUAUGG
RNA 2: GGGAAUGGAUCCACAUCUACGAAUUCGUGCCAUAGAGAGGUUAUCCGCUCACCAAGAUCGGAAGAGCACACGU
B2: target 1 insA 3' of 11,insC 3' of 8 (mixed)
RNA 1: CACCCGUGCAAAAAUGCAGGGGUCUAAAACUGAGCGGAUAACCUCUCUAUGG
RNA 2: GGGAAUGGAUCCACAUCUACGAAUUCGUACCAUAGAGAGGUAUAUCCCGCUCACCGAGAUCGGAAGAGCACACGU
B3: target 1 MT 5'PFS ACG 3'PFS AUC (mixed)
RNA 1: CACCCGUGCAAAAAUGCAGGGGUCUAAAACUGAGCGGAUAACCUCUCUAUGG
RNA 2: GGGAAUGGAUCCACAUCUACGAAUUCACGCCAUAGAGAGGUUAUCCGCUCAAUCAGAUCGGAAGAGCACACGU
B4: target 1 MT 5'PFS CCC 3'PFS AUG (mixed)
RNA 1: CACCCGUGCAAAAAUGCAGGGGUCUAAAACUGAGCGGAUAACCUCUCUAUGG
RNA 2: GGGAAUGGAUCCACAUCUACGAAUUCCCCCCAUAGAGAGGUUAUCCGCUCAAUGAGAUCGGAAGAGCACACGU
B5: target 1 U8C,U19C (mixed)
RNA 1: CACCCGUGCAAAAAUGCAGGGGUCUAAAACUGAGCGGAUAACCUCUCUAUGG
RNA 2: GGGAAUGGAUCCACAUCUACGAAUUCGUACCACAGAGAGGUUACCCGCUCACCGAGAUCGGAAGAGCACACGU
B6: target 1 MT 5'PFS GGC 3'PFS AGC (mixed)
RNA 1: CACCCGUGCAAAAAUGCAGGGGUCUAAAACUGAGCGGAUAACCUCUCUAUGG
RNA 2: GGGAAUGGAUCCACAUCUACGAAUUCGGCCCAUAGAGAGGUUAUCCGCUCAAGCAGAUCGGAAGAGCACACGU
B7: target 1 MT 5'PFS CCC 3'PFS AUU (mixed)
RNA 1: CACCCGUGCAAAAAUGCAGGGGUCUAAAACUGAGCGGAUAACCUCUCUAUGG
RNA 2: GGGAAUGGAUCCACAUCUACGAAUUCCCCCCAUAGAGAGGUUAUCCGCUCAAUUAGAUCGGAAGAGCACACGU
B8: target 1 MT 5'PFS CAC 3'PFS UUU (mixed)
RNA 1: CACCCGUGCAAAAAUGCAGGGGUCUAAAACUGAGCGGAUAACCUCUCUAUGG
RNA 2: GGGAAUGGAUCCACAUCUACGAAUUCCACCCAUAGAGAGGUUAUCCGCUCAUUUAGAUCGGAAGAGCACACGU
B9: target 1 MT 5'PFS CCU 3'PFS CAC (mixed)
RNA 1: CACCCGUGCAAAAAUGCAGGGGUCUAAAACUGAGCGGAUAACCUCUCUAUGG
RNA 2: GGGAAUGGAUCCACAUCUACGAAUUCCCUCCAUAGAGAGGUUAUCCGCUCACACAGAUCGGAAGAGCACACGU
B10: target 1 MT 5'PFS GCA 3'PFS CUG (mixed)
RNA 1: CACCCGUGCAAAAAUGCAGGGGUCUAAAACUGAGCGGAUAACCUCUCUAUGG
RNA 2: GGGAAUGGAUCCACAUCUACGAAUUCGCACCAUAGAGAGGUUAUCCGCUCACUGAGAUCGGAAGAGCACACGU
B11: target 1 MT 5'PFS CUG 3'PFS AGG (mixed)
RNA 1: CACCCGUGCAAAAAUGCAGGGGUCUAAAACUGAGCGGAUAACCUCUCUAUGG
RNA 2: GGGAAUGGAUCCACAUCUACGAAUUCCUGCCAUAGAGAGGUUAUCCGCUCAAGGAGAUCGGAAGAGCACACGU
B12: target 1 MT 5'PFS UGC 3'PFS AUU (mixed)
RNA 1: CACCCGUGCAAAAAUGCAGGGGUCUAAAACUGAGCGGAUAACCUCUCUAUGG
RNA 2: GGGAAUGGAUCCACAUCUACGAAUUCUGCCCAUAGAGAGGUUAUCCGCUCAAUUAGAUCGGAAGAGCACACGU
B13: target 1 MT 5'PFS CAA 3'PFS ACC (mixed)
RNA 1: CACCCGUGCAAAAAUGCAGGGGUCUAAAACUGAGCGGAUAACCUCUCUAUGG
RNA 2: GGGAAUGGAUCCACAUCUACGAAUUCCAACCAUAGAGAGGUUAUCCGCUCAACCAGAUCGGAAGAGCACACGU
B14: target 1 MT 5'PFS GCA 3'PFS CUC (mixed)
RNA 1: CACCCGUGCAAAAAUGCAGGGGUCUAAAACUGAGCGGAUAACCUCUCUAUGG
RNA 2: GGGAAUGGAUCCACAUCUACGAAUUCGCACCAUAGAGAGGUUAUCCGCUCACUCAGAUCGGAAGAGCACACGU
B15: target 1 MT 5'PFS GGA 3'PFS AUC (mixed)
RNA 1: CACCCGUGCAAAAAUGCAGGGGUCUAAAACUGAGCGGAUAACCUCUCUAUGG
RNA 2: GGGAAUGGAUCCACAUCUACGAAUUCGGACCAUAGAGAGGUUAUCCGCUCAAUCAGAUCGGAAGAGCACACGU
B16: target 1 MT 5'PFS GGA 3'PFS AUA (mixed)
RNA 1: CACCCGUGCAAAAAUGCAGGGGUCUAAAACUGAGCGGAUAACCUCUCUAUGG
RNA 2: GGGAAUGGAUCCACAUCUACGAAUUCGGACCAUAGAGAGGUUAUCCGCUCAAUAAGAUCGGAAGAGCACACGU
B17: target 1 MT 5'PFS UGC 3'PFS AUC (mixed)
RNA 1: CACCCGUGCAAAAAUGCAGGGGUCUAAAACUGAGCGGAUAACCUCUCUAUGG
RNA 2: GGGAAUGGAUCCACAUCUACGAAUUCUGCCCAUAGAGAGGUUAUCCGCUCAAUCAGAUCGGAAGAGCACACGU
B18: target 1 MT 5'PFS ACG 3'PFS AUG (mixed)
RNA 1: CACCCGUGCAAAAAUGCAGGGGUCUAAAACUGAGCGGAUAACCUCUCUAUGG
RNA 2: GGGAAUGGAUCCACAUCUACGAAUUCACGCCAUAGAGAGGUUAUCCGCUCAAUGAGAUCGGAAGAGCACACGU
B19: target 1 MT 5'PFS CAU 3'PFS UCA (mixed)
RNA 1: CACCCGUGCAAAAAUGCAGGGGUCUAAAACUGAGCGGAUAACCUCUCUAUGG
RNA 2: GGGAAUGGAUCCACAUCUACGAAUUCCAUCCAUAGAGAGGUUAUCCGCUCAUCAAGAUCGGAAGAGCACACGU
B20: target 1 MT 5'PFS GUG 3'PFS CCC (mixed)
RNA 1: CACCCGUGCAAAAAUGCAGGGGUCUAAAACUGAGCGGAUAACCUCUCUAUGG
RNA 2: GGGAAUGGAUCCACAUCUACGAAUUCGUGCCAUAGAGAGGUUAUCCGCUCACCCAGAUCGGAAGAGCACACGU
B21: target 1 MT 5'PFS GAG 3'PFS UCU (mixed)
RNA 1: CACCCGUGCAAAAAUGCAGGGGUCUAAAACUGAGCGGAUAACCUCUCUAUGG
RNA 2: GGGAAUGGAUCCACAUCUACGAAUUCGAGCCAUAGAGAGGUUAUCCGCUCAUCUAGAUCGGAAGAGCACACGU
B22: target 1 MT 5'PFS CCU 3'PFS CAA (mixed)
RNA 1: CACCCGUGCAAAAAUGCAGGGGUCUAAAACUGAGCGGAUAACCUCUCUAUGG
RNA 2: GGGAAUGGAUCCACAUCUACGAAUUCCCUCCAUAGAGAGGUUAUCCGCUCACAAAGAUCGGAAGAGCACACGU
B23: target 1 MT 5'PFS ACG 3'PFS AUA (mixed)
RNA 1: CACCCGUGCAAAAAUGCAGGGGUCUAAAACUGAGCGGAUAACCUCUCUAUGG
RNA 2: GGGAAUGGAUCCACAUCUACGAAUUCACGCCAUAGAGAGGUUAUCCGCUCAAUAAGAUCGGAAGAGCACACGU
B24: target 1 MT 5'PFS UGC 3'PFS AUA (mixed)
RNA 1: CACCCGUGCAAAAAUGCAGGGGUCUAAAACUGAGCGGAUAACCUCUCUAUGG
RNA 2: GGGAAUGGAUCCACAUCUACGAAUUCUGCCCAUAGAGAGGUUAUCCGCUCAAUAAGAUCGGAAGAGCACACGU
B25: target 1 MT 5'PFS AUG 3'PFS AUU (mixed)
RNA 1: CACCCGUGCAAAAAUGCAGGGGUCUAAAACUGAGCGGAUAACCUCUCUAUGG
RNA 2: GGGAAUGGAUCCACAUCUACGAAUUCAUGCCAUAGAGAGGUUAUCCGCUCAAUUAGAUCGGAAGAGCACACGU
B26: target 1 MT 5'PFS CCU 3'PFS CAG (mixed)
RNA 1: CACCCGUGCAAAAAUGCAGGGGUCUAAAACUGAGCGGAUAACCUCUCUAUGG
RNA 2: GGGAAUGGAUCCACAUCUACGAAUUCCCUCCAUAGAGAGGUUAUCCGCUCACAGAGAUCGGAAGAGCACACGU
B27: target 1 MT 5'PFS GGA 3'PFS AUG (mixed)
RNA 1: CACCCGUGCAAAAAUGCAGGGGUCUAAAACUGAGCGGAUAACCUCUCUAUGG
RNA 2: GGGAAUGGAUCCACAUCUACGAAUUCGGACCAUAGAGAGGUUAUCCGCUCAAUGAGAUCGGAAGAGCACACGU
B28: target 1 MT 5'PFS UGC 3'PFS AUG (mixed)
RNA 1: CACCCGUGCAAAAAUGCAGGGGUCUAAAACUGAGCGGAUAACCUCUCUAUGG
RNA 2: GGGAAUGGAUCCACAUCUACGAAUUCUGCCCAUAGAGAGGUUAUCCGCUCAAUGAGAUCGGAAGAGCACACGU

What follows are binders tested against T1, EsCas13d, nuclease-dead (assay: crRNA (strand 1, pre-loaded); Mg2+; 40 mM Tris-HCl pH 7.5, 150 mM NaCl, 6 mM MgCl2, 1 mM DTT, 0.1% Tween-20, 0.2 mg/ml BSA; 25 C; 10 min per concentration, then washed). Details: tags: His6-TwinStrep-SUMO cleaved; N-terminal SNAP kept (SNAP-Surface 488); label: 3' end held by stalled T7 RNA polymerase.

Point of comparison: B24, Kd 16.5 ± 6 nM. Against it:
- B1 — 2.8-fold higher, 46 ± 7.5 nM
- B2 — within error, 16.7 ± 1.1 nM
- B3 — within 1.5-fold, ~24.5 nM
- B4 — within error, 31 ± 14 nM
- B5 — 2.5-fold higher, 41.1 ± 2.3 nM
- B6 — within error, 9.95 ± 1.75 nM
- B7 — 2.1-fold lower, ~8 nM
- B8 — 2.3-fold lower, 7.15 ± 2.4 nM
- B9 — within error, 15.2 ± 5.15 nM
- B10 — within error, 11.9 ± 3.35 nM
- B11 — 4-fold higher, 66.5 ± 33 nM
- B12 — within error, 18.6 ± 5.1 nM
- B13 — within error, 14.8 ± 5.05 nM
- B14 — within error, ~19.5 nM
- B15 — within error, 22.5 ± 9 nM
- B16 — within error, 29 ± 7 nM
- B17 — 3.2-fold higher, 52.5 ± 23 nM
- B18 — 2.7-fold higher, 45 ± 18.5 nM
- B19 — 2.1-fold higher, ~35 nM
- B20 — within error, 23 ± 4 nM
- B21 — within error, 29 ± 9 nM
- B22 — 3.3-fold higher, 55 ± 19 nM
- B23 — the same, 16.5 ± 6.5 nM
- B25 — within error, 11.4 ± 2.5 nM
- B26 — 1.6-fold higher, ~26 nM
- B27 — 2.1-fold higher, 34.5 ± 6.5 nM
- B28 — 3.4-fold higher, ~55.5 nM
